Among the targets are Rsk4(h) (human) (UniProt Q9UK32); IR(h), activated (human) (UniProt P06213); MAPK2(h) (human) (UniProt P28482); GSK3β(h) (human) (UniProt P49841); PKCι(h) (human) (UniProt P41743); CLK3(h) (human) (UniProt P49761); ALK(h) (human) (UniProt Q9UM73); VRK2(h) (human) (UniProt Q86Y07).
Holding throughout (experiment): cell-based or functional assay
Experiment [1] deals with IGF-1R(h), activated (human) (UniProt P08069).
The target in a further experiment is T1, IRAK4(h) (human) (UniProt Q9NWZ3).
T1 sequence (looked up): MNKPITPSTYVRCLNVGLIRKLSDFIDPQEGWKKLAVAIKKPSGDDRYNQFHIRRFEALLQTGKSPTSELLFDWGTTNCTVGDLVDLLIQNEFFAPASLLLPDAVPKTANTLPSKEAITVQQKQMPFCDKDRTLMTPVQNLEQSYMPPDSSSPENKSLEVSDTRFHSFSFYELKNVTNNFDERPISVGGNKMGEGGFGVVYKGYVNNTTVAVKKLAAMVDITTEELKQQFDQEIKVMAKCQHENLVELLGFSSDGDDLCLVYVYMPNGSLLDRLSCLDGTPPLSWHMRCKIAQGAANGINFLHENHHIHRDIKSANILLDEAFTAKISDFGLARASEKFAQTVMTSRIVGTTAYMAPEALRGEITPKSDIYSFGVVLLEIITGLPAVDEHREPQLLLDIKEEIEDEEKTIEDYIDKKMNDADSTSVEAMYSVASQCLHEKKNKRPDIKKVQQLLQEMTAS

Another experiment addresses T2, Itk(h) (human) (UniProt Q08881).
T2 sequence (looked up): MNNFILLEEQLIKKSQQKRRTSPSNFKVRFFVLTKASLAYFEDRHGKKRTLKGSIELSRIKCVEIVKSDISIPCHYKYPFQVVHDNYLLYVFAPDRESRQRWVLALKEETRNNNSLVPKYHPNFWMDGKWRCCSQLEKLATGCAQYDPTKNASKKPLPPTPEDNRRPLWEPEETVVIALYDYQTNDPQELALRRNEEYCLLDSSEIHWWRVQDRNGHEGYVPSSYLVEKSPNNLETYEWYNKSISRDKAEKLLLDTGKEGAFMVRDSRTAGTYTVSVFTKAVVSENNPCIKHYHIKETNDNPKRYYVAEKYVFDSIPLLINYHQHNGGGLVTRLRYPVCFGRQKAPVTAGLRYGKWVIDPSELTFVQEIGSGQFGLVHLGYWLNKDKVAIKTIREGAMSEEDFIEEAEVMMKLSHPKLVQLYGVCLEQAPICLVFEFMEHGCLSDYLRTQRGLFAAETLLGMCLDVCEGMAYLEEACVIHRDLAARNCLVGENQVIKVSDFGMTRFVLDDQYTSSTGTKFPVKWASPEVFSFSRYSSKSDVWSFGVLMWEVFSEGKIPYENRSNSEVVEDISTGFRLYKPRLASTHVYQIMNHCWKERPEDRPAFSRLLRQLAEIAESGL

A further experiment concerns the target T3, Rse(h) (human) (UniProt Q06418).
T3 sequence (looked up): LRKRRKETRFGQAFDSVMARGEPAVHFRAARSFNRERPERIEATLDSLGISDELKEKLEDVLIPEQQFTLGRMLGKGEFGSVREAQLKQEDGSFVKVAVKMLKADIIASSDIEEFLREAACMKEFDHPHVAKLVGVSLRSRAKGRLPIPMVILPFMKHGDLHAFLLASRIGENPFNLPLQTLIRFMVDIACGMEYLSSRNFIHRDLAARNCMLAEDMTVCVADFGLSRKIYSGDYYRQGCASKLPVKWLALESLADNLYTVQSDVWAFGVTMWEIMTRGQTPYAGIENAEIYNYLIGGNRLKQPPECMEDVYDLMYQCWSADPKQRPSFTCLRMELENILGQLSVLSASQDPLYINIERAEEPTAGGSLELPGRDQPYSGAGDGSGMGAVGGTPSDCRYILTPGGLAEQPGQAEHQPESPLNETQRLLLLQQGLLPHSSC

The target in a further experiment is T4, DRAK1(h) (human) (UniProt Q9UEE5).
T4 sequence (looked up): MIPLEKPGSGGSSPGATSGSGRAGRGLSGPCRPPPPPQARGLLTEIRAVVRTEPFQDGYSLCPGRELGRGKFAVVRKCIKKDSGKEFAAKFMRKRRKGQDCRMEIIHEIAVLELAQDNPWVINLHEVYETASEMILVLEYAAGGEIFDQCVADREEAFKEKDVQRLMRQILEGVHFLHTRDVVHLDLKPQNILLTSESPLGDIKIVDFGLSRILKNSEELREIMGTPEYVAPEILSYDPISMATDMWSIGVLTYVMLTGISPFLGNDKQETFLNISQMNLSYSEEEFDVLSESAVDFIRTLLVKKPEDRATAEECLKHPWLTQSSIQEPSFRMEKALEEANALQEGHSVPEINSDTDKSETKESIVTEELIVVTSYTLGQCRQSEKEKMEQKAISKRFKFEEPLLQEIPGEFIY

The target of a further experiment is T5, PKCζ(h) (human) (UniProt Q05513).
T5 sequence (looked up): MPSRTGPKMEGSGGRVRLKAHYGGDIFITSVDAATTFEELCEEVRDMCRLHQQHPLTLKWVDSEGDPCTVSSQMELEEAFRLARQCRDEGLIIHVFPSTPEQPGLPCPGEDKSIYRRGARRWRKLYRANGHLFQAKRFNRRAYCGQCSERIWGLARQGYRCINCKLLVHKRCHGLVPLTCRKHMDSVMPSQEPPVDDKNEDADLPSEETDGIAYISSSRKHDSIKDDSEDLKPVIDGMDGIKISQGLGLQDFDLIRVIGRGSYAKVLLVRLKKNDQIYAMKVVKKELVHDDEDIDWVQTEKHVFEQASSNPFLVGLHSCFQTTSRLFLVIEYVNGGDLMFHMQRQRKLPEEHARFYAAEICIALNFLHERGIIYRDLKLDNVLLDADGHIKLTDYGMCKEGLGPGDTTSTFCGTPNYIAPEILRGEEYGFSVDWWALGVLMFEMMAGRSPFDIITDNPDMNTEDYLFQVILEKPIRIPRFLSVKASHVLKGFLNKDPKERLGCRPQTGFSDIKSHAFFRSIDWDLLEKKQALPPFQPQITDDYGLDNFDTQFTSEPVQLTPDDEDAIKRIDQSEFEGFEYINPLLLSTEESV

VRK2(h) (human), sequence (Q86Y07 whole entry): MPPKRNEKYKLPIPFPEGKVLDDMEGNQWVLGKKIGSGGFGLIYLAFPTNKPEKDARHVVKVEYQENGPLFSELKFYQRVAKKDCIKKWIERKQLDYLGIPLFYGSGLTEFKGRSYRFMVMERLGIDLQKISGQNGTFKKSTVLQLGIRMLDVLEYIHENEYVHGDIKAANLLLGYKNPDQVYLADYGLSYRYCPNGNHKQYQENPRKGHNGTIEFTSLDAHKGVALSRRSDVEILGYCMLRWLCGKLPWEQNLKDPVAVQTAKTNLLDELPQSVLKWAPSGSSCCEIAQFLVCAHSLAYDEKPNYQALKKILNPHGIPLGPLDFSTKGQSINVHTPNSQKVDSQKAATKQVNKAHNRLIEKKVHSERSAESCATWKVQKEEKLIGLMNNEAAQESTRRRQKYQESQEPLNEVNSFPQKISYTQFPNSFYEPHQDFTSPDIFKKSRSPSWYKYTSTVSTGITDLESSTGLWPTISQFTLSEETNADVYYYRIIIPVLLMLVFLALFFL
IGF-1R(h), activated (human), sequence (P08069 959-1367 limits assumed): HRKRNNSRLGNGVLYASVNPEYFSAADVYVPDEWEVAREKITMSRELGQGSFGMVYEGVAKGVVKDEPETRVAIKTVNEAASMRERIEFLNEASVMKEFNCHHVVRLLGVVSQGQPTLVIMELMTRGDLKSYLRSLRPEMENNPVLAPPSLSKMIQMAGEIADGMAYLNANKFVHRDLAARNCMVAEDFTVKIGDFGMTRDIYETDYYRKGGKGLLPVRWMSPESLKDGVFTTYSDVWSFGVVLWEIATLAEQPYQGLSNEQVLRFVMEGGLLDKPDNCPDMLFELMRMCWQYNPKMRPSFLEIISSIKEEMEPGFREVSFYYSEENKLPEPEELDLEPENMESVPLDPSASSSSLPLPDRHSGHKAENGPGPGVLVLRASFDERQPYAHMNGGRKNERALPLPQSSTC
IR(h), activated (human), sequence (P06213 1005-1310 limits assumed): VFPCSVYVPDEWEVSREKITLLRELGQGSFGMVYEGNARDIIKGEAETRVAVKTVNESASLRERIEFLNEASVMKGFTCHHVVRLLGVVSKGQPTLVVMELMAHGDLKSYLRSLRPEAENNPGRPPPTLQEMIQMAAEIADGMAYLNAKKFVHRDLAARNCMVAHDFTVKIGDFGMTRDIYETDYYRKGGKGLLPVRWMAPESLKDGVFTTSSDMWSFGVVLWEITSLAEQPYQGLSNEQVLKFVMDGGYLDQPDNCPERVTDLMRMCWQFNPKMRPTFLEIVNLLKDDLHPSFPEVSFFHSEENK
MAPK2(h) (human), sequence (P28482 whole entry): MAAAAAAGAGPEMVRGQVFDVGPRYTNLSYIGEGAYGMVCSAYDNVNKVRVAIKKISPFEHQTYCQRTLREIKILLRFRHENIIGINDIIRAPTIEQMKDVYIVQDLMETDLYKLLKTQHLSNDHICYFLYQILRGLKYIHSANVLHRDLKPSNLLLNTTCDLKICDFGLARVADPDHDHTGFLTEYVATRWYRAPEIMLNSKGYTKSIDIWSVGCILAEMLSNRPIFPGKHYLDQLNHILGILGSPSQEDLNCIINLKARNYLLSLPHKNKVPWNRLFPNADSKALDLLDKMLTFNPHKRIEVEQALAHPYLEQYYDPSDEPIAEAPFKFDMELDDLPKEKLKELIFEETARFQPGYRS
Rsk4(h) (human), sequence (Q9UK32 whole entry): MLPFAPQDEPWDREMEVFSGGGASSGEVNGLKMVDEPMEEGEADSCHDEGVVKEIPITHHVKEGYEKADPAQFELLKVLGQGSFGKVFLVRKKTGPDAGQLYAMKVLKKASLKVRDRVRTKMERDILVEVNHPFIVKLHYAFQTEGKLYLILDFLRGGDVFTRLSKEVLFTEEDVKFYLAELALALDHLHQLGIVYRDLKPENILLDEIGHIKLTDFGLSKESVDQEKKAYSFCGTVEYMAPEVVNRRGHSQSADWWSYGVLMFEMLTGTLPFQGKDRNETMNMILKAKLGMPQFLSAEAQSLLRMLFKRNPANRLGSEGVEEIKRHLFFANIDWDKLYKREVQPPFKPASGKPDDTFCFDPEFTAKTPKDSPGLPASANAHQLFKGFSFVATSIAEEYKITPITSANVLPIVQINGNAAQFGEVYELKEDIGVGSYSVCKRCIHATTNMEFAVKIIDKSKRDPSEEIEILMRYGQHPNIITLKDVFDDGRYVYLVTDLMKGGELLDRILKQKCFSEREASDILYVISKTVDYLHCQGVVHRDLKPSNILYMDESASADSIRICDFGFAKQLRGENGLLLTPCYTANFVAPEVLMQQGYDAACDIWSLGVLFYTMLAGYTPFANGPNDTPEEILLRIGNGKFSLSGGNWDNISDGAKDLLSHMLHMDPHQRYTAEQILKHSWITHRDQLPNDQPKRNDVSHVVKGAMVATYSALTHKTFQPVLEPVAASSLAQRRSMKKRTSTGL

Take MMI-0400 (peptide): the % activity at 100 µM stood at 77% in experiment [1]; 59% in the experiment with IRAK4(h) (human); 63% in the experiment with Itk(h) (human); 91% with Rsk4(h) (human); 59% with IR(h), activated (human); 93% with MAPK2(h) (human). Also, the % activity at 100 µM with GSK3β(h) (human) was 202%; with Rse(h) (human), 89%; with PKCι(h) (human), 46%; with CLK3(h) (human), 84%; in the experiment with DRAK1(h) (human) it was 14%; with PKCζ(h) (human), 75%. Besides, the values for the % activity at 100 µM with ALK(h) (human) and in the experiment with VRK2(h) (human) were 16% and 185%, respectively.
Turning to MMI-0500 (peptide), the % activity at 100 µM in [1] worked out at 45%; with IRAK4(h) (human) it was 3%; with Itk(h) (human), 7%; with Rsk4(h) (human), 29%; with IR(h), activated (human), 90%; with MAPK2(h) (human), 60%. The % activity at 100 µM with GSK3β(h) (human) amounted to 238%; with Rse(h) (human) it was 63%; with PKCι(h) (human), 7%; with CLK3(h) (human), 76%; in the experiment with DRAK1(h) (human), 8%; with PKCζ(h) (human), 7%. Also, the results for the % activity at 100 µM in the experiment with ALK(h) (human) and with VRK2(h) (human) were 12% and 169%, respectively.
As for MMI-0300 (peptide), the % activity at 100 µM in experiment [1] is 80%; with IRAK4(h) (human) it was 59%; in the experiment with Itk(h) (human), 77%; in the experiment with Rsk4(h) (human), 90%; with IR(h), activated (human), 79%; with MAPK2(h) (human), 98%. Moreover, the % activity at 100 µM in the experiment with GSK3β(h) (human) turned out to be 205%; in the experiment with Rse(h) (human) it was 88%; with PKCι(h) (human), 68%; with CLK3(h) (human), 61%; with DRAK1(h) (human), 14%; with PKCζ(h) (human), 81%. Also, the % activity at 100 µM was 19% in the experiment with ALK(h) (human) and 161% in the experiment with VRK2(h) (human).

Source of the values: patent US20150064134A1.
